Each block holds one substance with its values, some of them ahead of it.
Legend:
Fisp12/mCTGF (mouse) = Fisp12/mCTGF (mouse) (UniProt P29268); assay: solid-phase binding isotherm: varied RGD-affinity purified αIIbβ3 on immobilized Fisp12/mCTGF, detected with 125I-mAb15; saturable
[1] = target: αvβ3 integrin on human cells (HUVE cells, fibroblasts, platelets) (human) (UniProt P06756); assay: cell-based or functional assay
[2] = target: integrin α1 subunit on 1064SK fibroblasts (human) (UniProt P56199); assay: cell-based or functional assay
Chain of integrin α1 subunit on 1064SK fibroblasts (human) (P56199 29-1179): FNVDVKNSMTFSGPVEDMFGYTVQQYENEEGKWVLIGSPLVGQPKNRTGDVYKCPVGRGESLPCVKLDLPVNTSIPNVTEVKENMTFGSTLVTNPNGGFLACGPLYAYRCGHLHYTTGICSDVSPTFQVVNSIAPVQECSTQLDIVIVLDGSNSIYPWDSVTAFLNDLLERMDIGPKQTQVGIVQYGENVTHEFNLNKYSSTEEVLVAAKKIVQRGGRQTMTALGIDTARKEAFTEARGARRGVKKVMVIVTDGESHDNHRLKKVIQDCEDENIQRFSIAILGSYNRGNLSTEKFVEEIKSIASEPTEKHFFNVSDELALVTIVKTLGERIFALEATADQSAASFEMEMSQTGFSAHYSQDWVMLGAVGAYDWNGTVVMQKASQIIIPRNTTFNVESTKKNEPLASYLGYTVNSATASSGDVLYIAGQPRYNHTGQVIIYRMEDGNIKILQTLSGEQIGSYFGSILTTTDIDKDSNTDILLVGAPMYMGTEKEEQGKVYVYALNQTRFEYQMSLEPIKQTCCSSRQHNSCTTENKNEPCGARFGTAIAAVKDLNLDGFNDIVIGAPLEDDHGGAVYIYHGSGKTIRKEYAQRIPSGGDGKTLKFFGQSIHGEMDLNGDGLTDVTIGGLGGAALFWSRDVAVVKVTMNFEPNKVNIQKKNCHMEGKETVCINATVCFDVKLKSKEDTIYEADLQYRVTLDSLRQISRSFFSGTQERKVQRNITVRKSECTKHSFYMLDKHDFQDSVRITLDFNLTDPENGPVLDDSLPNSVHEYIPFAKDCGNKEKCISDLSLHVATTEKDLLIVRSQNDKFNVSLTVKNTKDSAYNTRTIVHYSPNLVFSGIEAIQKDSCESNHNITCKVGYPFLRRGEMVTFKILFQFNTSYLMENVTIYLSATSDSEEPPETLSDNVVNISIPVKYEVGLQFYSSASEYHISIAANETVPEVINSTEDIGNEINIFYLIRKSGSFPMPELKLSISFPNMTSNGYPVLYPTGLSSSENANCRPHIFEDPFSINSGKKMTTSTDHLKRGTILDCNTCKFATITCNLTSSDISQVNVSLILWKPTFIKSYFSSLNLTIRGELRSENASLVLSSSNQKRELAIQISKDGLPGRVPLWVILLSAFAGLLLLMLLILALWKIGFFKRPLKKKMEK

[3] = target: integrin α5β1 (fibronectin receptor) on 1064SK fibroblasts (human) (UniProt P08648); assay: cell-based or functional assay
[4] = target: integrin αv subunit (αv integrins αvβ1, αvβ3, αvβ5) on 1064SK fibroblasts (human) (UniProt P06756); assay: cell-based or functional assay
[5] = target: integrin α2 subunit on 1064SK fibroblasts (human) (UniProt P17301); assay: cell-based or functional assay
[6] = target: integrin α4 subunit on 1064SK fibroblasts (human) (UniProt P13612); assay: cell-based or functional assay
[7] = target: integrin α3 subunit on 1064SK fibroblasts (human) (UniProt P26006); assay: cell-based or functional assay
Chain of integrin α3 subunit on 1064SK fibroblasts (human) (P26006 33-1051): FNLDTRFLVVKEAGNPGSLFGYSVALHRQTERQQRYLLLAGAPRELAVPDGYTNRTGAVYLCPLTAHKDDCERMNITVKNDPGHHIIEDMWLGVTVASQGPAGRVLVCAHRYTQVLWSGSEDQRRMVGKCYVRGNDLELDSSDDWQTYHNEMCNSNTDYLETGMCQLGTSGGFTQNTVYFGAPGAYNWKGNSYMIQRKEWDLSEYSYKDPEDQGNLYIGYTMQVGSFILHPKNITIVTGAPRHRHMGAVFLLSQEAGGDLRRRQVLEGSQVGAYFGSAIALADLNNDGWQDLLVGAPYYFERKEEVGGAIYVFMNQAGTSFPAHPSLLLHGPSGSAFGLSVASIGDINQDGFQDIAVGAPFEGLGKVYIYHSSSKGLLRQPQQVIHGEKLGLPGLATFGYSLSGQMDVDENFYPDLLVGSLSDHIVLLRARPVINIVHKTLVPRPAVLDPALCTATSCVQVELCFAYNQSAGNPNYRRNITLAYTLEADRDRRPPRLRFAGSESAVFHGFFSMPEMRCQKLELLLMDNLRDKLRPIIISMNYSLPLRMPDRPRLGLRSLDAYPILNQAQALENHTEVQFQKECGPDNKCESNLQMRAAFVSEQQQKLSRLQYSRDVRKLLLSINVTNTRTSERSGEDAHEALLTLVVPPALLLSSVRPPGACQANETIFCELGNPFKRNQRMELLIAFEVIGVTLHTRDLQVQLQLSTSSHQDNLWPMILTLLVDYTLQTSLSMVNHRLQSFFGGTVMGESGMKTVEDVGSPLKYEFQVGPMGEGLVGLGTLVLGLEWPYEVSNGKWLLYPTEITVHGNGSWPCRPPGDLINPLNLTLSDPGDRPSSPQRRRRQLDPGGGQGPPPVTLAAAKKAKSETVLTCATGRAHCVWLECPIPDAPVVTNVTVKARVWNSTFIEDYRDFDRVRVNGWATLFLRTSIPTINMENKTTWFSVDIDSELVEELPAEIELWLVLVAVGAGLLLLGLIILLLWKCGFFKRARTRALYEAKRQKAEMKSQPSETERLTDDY

[8] = target: integrin α6β1 on human cells (1064SK fibroblasts, endothelial cells) (human) (UniProt P23229); assay: cell-based or functional assay
Chain of integrin α6β1 on human cells (1064SK fibroblasts, endothelial cells) (human) (P23229 24-1130, chain 1 of 2): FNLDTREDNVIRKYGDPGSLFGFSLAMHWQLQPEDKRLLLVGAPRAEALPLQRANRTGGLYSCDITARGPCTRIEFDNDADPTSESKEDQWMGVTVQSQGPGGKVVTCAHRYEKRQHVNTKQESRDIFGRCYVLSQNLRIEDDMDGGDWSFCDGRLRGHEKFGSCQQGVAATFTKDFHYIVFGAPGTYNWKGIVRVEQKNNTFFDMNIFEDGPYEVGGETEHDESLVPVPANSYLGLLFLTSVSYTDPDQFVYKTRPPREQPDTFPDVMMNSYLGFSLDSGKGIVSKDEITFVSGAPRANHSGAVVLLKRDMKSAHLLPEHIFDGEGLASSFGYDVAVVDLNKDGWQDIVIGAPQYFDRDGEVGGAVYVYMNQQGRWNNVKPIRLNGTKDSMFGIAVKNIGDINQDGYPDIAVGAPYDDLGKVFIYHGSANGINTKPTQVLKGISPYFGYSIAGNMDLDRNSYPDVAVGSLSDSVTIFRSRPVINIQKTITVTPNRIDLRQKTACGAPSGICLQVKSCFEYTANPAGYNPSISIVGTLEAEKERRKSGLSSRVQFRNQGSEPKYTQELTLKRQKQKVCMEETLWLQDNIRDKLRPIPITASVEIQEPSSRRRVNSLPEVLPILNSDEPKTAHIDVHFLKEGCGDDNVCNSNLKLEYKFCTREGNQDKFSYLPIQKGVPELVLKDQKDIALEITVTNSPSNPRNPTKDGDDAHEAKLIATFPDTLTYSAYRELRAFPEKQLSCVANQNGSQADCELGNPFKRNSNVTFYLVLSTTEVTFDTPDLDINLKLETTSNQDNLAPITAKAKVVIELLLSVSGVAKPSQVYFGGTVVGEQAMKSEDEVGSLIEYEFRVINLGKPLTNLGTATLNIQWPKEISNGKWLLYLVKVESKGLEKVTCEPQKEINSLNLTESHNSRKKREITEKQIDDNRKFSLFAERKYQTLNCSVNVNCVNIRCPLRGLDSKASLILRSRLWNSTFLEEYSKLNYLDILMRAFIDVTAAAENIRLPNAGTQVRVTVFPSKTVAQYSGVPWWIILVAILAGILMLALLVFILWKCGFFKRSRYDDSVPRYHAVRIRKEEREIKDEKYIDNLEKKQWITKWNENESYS
Chain of integrin α6β1 on human cells (1064SK fibroblasts, endothelial cells) (human) (P05556 21-798, chain 2 of 2, further chain): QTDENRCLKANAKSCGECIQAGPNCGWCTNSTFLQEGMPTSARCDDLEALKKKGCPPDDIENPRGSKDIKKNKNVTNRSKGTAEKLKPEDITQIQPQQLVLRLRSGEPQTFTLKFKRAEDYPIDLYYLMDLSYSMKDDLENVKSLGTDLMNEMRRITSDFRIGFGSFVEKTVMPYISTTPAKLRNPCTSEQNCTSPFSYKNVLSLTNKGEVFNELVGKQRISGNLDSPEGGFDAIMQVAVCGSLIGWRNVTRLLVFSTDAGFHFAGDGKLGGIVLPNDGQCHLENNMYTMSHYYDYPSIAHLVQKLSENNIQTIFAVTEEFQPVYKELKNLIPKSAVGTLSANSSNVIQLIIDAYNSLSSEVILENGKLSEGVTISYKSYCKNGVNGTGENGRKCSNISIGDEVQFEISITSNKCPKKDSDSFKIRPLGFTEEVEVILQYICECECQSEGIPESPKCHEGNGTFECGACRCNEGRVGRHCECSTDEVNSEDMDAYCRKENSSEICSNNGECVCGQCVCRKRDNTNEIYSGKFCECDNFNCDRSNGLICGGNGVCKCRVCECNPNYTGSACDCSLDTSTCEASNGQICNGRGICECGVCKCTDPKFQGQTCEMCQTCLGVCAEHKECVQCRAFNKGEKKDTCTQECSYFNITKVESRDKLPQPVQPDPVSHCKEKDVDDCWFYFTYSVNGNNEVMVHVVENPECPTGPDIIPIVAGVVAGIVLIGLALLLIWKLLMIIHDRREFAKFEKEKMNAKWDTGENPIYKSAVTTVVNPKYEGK

[9] = target: integrin β1 subunit (β1 integrins) on 1064SK fibroblasts (human) (UniProt P05556); assay: cell-based or functional assay
Chain of integrin β1 subunit (β1 integrins) on 1064SK fibroblasts (human) (P05556 21-798): as the sequence (P05556 21-798, chain 2 of 2, further chain) above

Chain of Fisp12/mCTGF (mouse) (P29268 26-348 E161K limits assumed, form in doubt): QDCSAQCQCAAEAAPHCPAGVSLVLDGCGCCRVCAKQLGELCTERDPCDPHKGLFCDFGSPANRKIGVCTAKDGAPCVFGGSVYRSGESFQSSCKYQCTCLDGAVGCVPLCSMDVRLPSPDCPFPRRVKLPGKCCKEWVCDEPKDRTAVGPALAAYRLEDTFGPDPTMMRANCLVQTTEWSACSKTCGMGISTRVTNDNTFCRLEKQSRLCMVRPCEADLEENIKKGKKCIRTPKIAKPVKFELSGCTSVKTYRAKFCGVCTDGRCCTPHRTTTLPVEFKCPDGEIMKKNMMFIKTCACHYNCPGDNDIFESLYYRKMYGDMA

half-saturation concentration (Fisp12/mCTGF (mouse)): 15 nM
Substance: activated αIIbβ3 (RGD-affinity purified from human platelet lysates) (from UniProt P08514 32-1039; P05106 27-788) (receptor)

relative binding capacity of HUVE cells on wild-type Cyr61 (5 µg/ml) after anti-αvβ3 antibody LM609 (40 µg/ml); no pre-incubation = 100 [1]: 42%
A620, 1064SK adhesion to Cyr61 (2 µg/ml) after anti-α1 antibody (40 µg/ml); control without antibody 0.58 [2]: 0.54 A620
A620, 1064SK adhesion to Cyr61 (2 µg/ml) after anti-α5 antibody (40 µg/ml); no addition 0.75 [3]: 0.77 A620
A620, 1064SK adhesion to Cyr61 (2 µg/ml) after anti-αv antibody (40 µg/ml); no addition 0.75 [4]: 0.73 A620
A620, 1064SK adhesion to Cyr61 (2 µg/ml) after anti-α2 antibody (40 µg/ml); control without antibody 0.58 [5]: 0.6 A620
A620, 1064SK adhesion to Cyr61 (2 µg/ml) after anti-α4 antibody (40 µg/ml); control without antibody 0.58 [6]: 0.56 A620
A620, 1064SK adhesion to Cyr61 (2 µg/ml) after anti-α3 antibody (40 µg/ml); control without antibody 0.58 [7]: 0.55 A620
A620, 1064SK adhesion to Cyr61 (2 µg/ml) after anti-α6 antibody (20 µg/ml); 0.53 without antibody [8]: 0.08 A620
percent inhibition of 1064SK adhesion to Cyr61 by anti-α6 antibody [8]: > 80%
percent inhibition of 1064SK adhesion to wild-type Cyr61 by anti-α6 antibody (20 µg/ml) [8]: 78%
A620, 1064SK adhesion to Cyr61 (2 µg/ml) after anti-β1 antibody JB1A (50 µg/ml); 0.53 without antibody [9]: 0.14 A620
percent inhibition of 1064SK adhesion to Cyr61 by anti-β1 antibody JB1A [9]: 75%
Substance: human Cyr61 (from UniProt O00622 25-381) (ligand)

A620, 1064SK adhesion to laminin (5 µg/ml) after anti-α6 antibody; 0.62 without antibody [8]: 0.48 A620
percent inhibition of 1064SK adhesion to laminin by anti-α6 antibody [8]: 22%
Substance: mouse laminin (ligand)

A620, 1064SK adhesion to type I collagen (2 µg/ml) after anti-β1 antibody JB1A; 0.56 without antibody [9]: 0.21 A620
percent inhibition of 1064SK adhesion to type I collagen by anti-β1 antibody JB1A [9]: 62%
Substance: rat tail Type-I collagen (from UniProt P02454 152-1207; P02466 86-1125) (ligand)
